Measurements as given in paper PMC7940618, “Specific inhibition of the Survivin–CRM1 interaction by peptide-modified molecular tweezers” (Nature Communications, 2021).
Peptide text beside a SMILES is read from it.

What was measured:
Assay type in all cases: binding
Survivin–CRM1 complex = biological target: T1, Survivin–CRM1 complex (Homo sapiens, UniProt O15392); experiment: Pull-down with 293T lysate (Survivin142-HA), GST-CRM1 bait, RanQ69L, dGTP
T1 construct: expressed in transfected cells; host or cells: 293T cells (Survivin142-HA); E. coli soluBL21 (GST-CRM1, RanQ69L)
T1 sequence (O15392 whole entry, one chain of several): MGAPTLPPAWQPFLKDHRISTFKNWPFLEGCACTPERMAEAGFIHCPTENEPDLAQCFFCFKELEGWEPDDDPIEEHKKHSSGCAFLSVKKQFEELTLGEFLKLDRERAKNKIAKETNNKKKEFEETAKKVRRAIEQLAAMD
Method: We next investigated whether tweezers inhibit the Survivin–CRM1 complex formation in vitro. The effects of the unmodified and peptide-linked tweezers were analyzed via pull-down experiments with 293T lysates containing overexpressed HA-tagged Survivin142, recombinant GST-CRM1 as bait protein, and tweezers (Fig. 6). The parent and ELTL-linked tweezer required 10–50 µM to disrupt the Survivin–CRM1 complex. […] In order to provide experimental evidence for the sequence selectivity of the TW-ELTLGEFL ligand, a scrambled analog was synthesized and clicked to the tweezer, resulting in the hybrid molecule TW-LFEEGLLT (SI1, SI2, and SI10). […] Instead, the slight chemical shift perturbations might be due to the spatial proximity of the peptide moiety to the anchoring residue. All those results strongly indicate that the additional binding energy from the NES interface was lost due to scrambling and thus point toward specific recognition as the reason for increased selectivity and interference with the Survivin–CRM1 interaction. Of note, very high tweezer concentrations (100–200 µM) also weakened GST-CRM1 binding to GSH-Sepharose beads, most likely by low-affinity binding to the GST protein.
(§1) All pull-down assays were performed at room temperature in pull-down buffer (PBS, pH 7.4, 1 mM DTT, 0.02 Triton X-100). GST fusion proteins were immobilized on 50 μL GSH-coated Sepharose 4B beads from GE Healthcare. The beads were prior equilibrated and blocked with 500 μL pull-down blocking buffer (PBS, pH 7.4, 1 (w/v) BSA, 1 mM DTT, 0.02 (v/v) Triton X-100) for 1 h to prevent unspecific binding.
For analysis of the effective inhibitory tweezer concentration, 200 μg 293T lysate with overexpressed Survivin142-HA was preincubated without ligand or with different concentrations (10 nM to 200 μM) of unmodified tweezer TW, TW-ELTL, TW-ELTLGEFL, or TW-LFEEGLLT for 1 h and then mixed with 35 μg GST-CRM1, 55 μg RanQ69L, and 2 mM dGTP. GSH-beads were incubated with this protein mixture for 2 h under rotation. […]
Samples of input and beads taken during pull-down experiments were ran on 12.5 SDS gels and transferred onto 0.2 µM PVDF membranes (Amersham Hybond P 0.2) using a PerfectBlue™ tank electro blotter (Peqlab) at 350 mA for 150 min. […] Chemiluminescence was detected and imaged using the Pierce ECL Plus Western Blotting Substrate kit (Thermo Fisher Scientific) and Chemidoc system (Bio-Rad) or film processor Cawomat 2000 IR (CAWO). Western blots were analyzed by densitometric analysis with ImageJ version 1.52p (U.S. National Institutes of Health), measuring the mean gray intensity of protein bands. […]

Survivin120 K90/103T = biological target: T2, Survivin120 K90/103T (Homo sapiens, UniProt O15392, K103T/K90T); experiment: ITC titration of tweezers with Survivin120 K90/103T mutant
T2 construct: the only published NMR structure originated from a truncated Survivin (aa 1-120) with improved solubility; GST with PreScission site (N); made in house; host or cells: Escherichia coli soluBL21
T2 sequence (O15392 1-120 K90T/K103T): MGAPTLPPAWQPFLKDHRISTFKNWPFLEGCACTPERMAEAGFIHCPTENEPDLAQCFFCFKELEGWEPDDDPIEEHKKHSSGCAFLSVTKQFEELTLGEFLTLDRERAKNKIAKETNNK
Excerpt: If the tweezer-based inhibitors indeed bind to lysines/arginines flanking the NES (K90, K91, K103, R106), their mutation to, e.g., threonine, should abolish the observed effects. For this reason, we generated double and triple Survivin120 mutants lacking these putative tweezer anchor points. Unfortunately, most double mutants and especially the triple mutants were unfolded as evidenced by 1D ^1H NMR (SI6); finally, the correctly folded double threonine mutant Survivin120 K90/103T was chosen for further investigation. […] Next, binding of FAM-labeled tweezers (SI3) to either Survivin120 wildtype or the K90/103T mutant was studied by fluorescence anisotropy (Fig. 7d–f). […] We conclude that lysines 90 and 103 are indeed essential for efficient tweezer binding.
(§2) ITC was performed with a MicroCal iTC200 from Malvern Panalytical in PBS, pH 7.4 at 25 °C with molecular tweezers in the cell and Survivin120 in the titration syringe. The protein was dialyzed overnight at 4 °C against the PBS buffer. Ligands were dissolved in the respective dialysis buffer. Then, 300 µM TW were titrated with 300 µM Survivin120 WT or 321 µM Survivin120 K90/103T. Then, 100 µM TW-ELTL, TW-ELTLGEFL, or TW-LFEEGLLT was titrated with 1.2 mM Survivin120 WT or 2.5 mM Survivin120 K90/103T. For reverse titrations, either 33.3 or 34.4 µM Survivin120 in the cell was titrated with 5 mM TW or TW-ELTL in the syringe, respectively. All titrations were performed in PBS, pH 7.4 at 25 °C. Then, 1.5 μL injections were used with 120 s spacing time between injections. The injection rate was set to 0.5 µL/s and the reference power was 5 µcal/s. ITC thermograms were fitted to a one set of sites model with the software Origin (v7.0552) provided with the instrument. Heat of dilution was subtracted as constant from each data point.
(§3) ITC thermograms were fitted to a one set of sites model with the software Origin provided with the instrument. Heat of dilution was subtracted as constant from each data point. From three independent experiments (n = 3), one representative example was depicted, and thermodynamic data were derived thereof. For pull-down experiments, only the representative quantification of the depicted western blot is shown. […] Fluorescence anisotropy graphs were generated with GraphPad Prism 5.0. Depicted error bars represent the standard deviation of three independent titrations.

Survivin120 = biological target: T3, Survivin120 (Homo sapiens, UniProt O15392); experiment: ITC titration of tweezers with Survivin120 wildtype
T3 construct: the only published NMR structure originated from a truncated Survivin (aa 1-120) with improved solubility; GST with PreScission site (N); made in house; host or cells: Escherichia coli soluBL21
T3 sequence (O15392 1-120): as the sequence (O15392 1-120 K90T/K103T) above, with T90K, T103K counted along it
Method: The interaction between the tweezers and Survivin was studied by isothermal titration calorimetry (ITC) and NMR spectroscopy. So far, the only published NMR structure originated from a truncated Survivin (aa 1-120) with improved solubility. […] Since the truncated construct still contains all relevant parts of the protein and gives excellent NMR spectra (SI5), we chose it for all our in vitro experiments and denote it as Survivin120 in the following results.
as §2, §3

[1] = biological target: T4, GST-Survivin120–CRM1 interaction (Homo sapiens, UniProt O15392); experiment: Pull-down with GST-Survivin120 wildtype bait, CRM1 and RanQ69L
T4 construct: the only published NMR structure originated from a truncated Survivin (aa 1-120) with improved solubility; made in house; host or cells: Escherichia coli soluBL21
T4 sequence (O15392 1-120): as the sequence (O15392 1-120 K90T/K103T) above, with T90K, T103K counted along it
Method: (§4) Next, we investigated whether tweezer inhibition of the export complex assembly is compromised upon lysine mutations near the NES. Therefore, pull-down experiments were performed with recombinant GST-tagged Survivin120 wildtype and K90/103T as bait proteins, tweezers, recombinant CRM1 and RanQ69L (Fig. 7g). Controls lacking the Survivin baits were included, as well as isolated peptides without tweezer (Fig. 7h). […] However, for the double lysine mutant GST-Survivin120-K90/103T even the tweezer conjugates lost most of their inhibitory power toward the essential Survivin–CRM1 interaction.
as §1
(§5) For analysis of the effective inhibitory tweezer concentration, 200 μg 293T lysate with overexpressed Survivin142-HA was preincubated without ligand or with different concentrations (10 nM to 200 μM) of unmodified tweezer TW, TW-ELTL, TW-ELTLGEFL, or TW-LFEEGLLT for 1 h and then mixed with 35 μg GST-CRM1, 55 μg RanQ69L, and 2 mM dGTP. GSH-beads were incubated with this protein mixture for 2 h under rotation. For analysis of tweezer specificity, 40 μg GST-Survivin120 or GST-Survivin120-K90/103T point mutant was pre-bound to equilibrated GSH-beads in 500 μL pull-down buffer, containing additionally either no ligand or 50 μM unmodified tweezer TW, TW-ELTL, TW-ELTLGEFL, or peptides ELTL and ELTLGEFL, for 1 h under rotation. After washing and blocking, GSH-beads were incubated with a protein mixture consisting of 2 mM dGTP, 50 μg CRM1, and 50 μg RanQ69L for 2 h under rotation.
(§6) Samples of input and beads taken during pull-down experiments were ran on 12.5 SDS gels and transferred onto 0.2 µM PVDF membranes (Amersham Hybond P 0.2) using a PerfectBlue™ tank electro blotter (Peqlab) at 350 mA for 150 min. Membranes were blocked for 1 h using 5% milk powder in TBS buffer containing 0.1% Tween-20. Next, membranes were incubated in primary antibodies against HA (anti-HA, mouse monoclonal, BioLegend, Covance MMS-101R, 1:1,000), GST (anti-GST, mouse monoclonal, Santa Cruz Biotechnology Inc., sc-57753, 1:1000) or CRM1 (anti-CRM1, rabbit polyclonal, Novus Biologicals Ltd., NB100-79802, 1:10,000) overnight at 4 °C. Secondary horseradish peroxidase (HRP)-conjugated antibody (anti-mouse IgG-HRP, sheep, GE Healthcare, NXA931 or anti-rabbit IgG-HRP, donkey, GE Healthcare, NA934) was then added (1:10,000) for 1 h at room temperature. Chemiluminescence was detected and imaged using the Pierce ECL Plus Western Blotting Substrate kit (Thermo Fisher Scientific) and Chemidoc system (Bio-Rad) or film processor Cawomat 2000 IR (CAWO). Western blots were analyzed by densitometric analysis with ImageJ version 1.52p (U.S. National Institutes of Health), measuring the mean gray intensity of protein bands. Uncropped and unprocessed scans of western blots are deposited in the Source Data file.

[2] = biological target: T5, GST-Survivin120-K90/103T–CRM1 interaction (Homo sapiens, UniProt O15392, K103T/K90T); experiment: Pull-down with GST-Survivin120-K90/103T bait, CRM1 and RanQ69L
T5 construct: the only published NMR structure originated from a truncated Survivin (aa 1-120) with improved solubility; made in house; host or cells: Escherichia coli soluBL21
T5 sequence (O15392 1-120 K90T/K103T): as the sequence (O15392 1-120 K90T/K103T) above
Method: as §4, §1, §5, §6

[3] = CRM1 band, samples 22-28 (K90/103T)

CC(C)C[C@H](NC(=O)Cn1cc(CCOP(=O)(O)Oc2c3c(c(OP(=O)(O)O)c4c2C2CC4c4cc5c(cc42)C2CC5c4ccccc42)C2CC3c3cc4c(cc32)C2CC4c3ccccc32)nn1)C(=O)N[C@@H](Cc1ccccc1)C(=O)N[C@@H](CCC(=O)O)C(=O)N[C@@H](CCC(=O)O)C(=O)NCC(=O)N[C@@H](CC(C)C)C(=O)N[C@@H](CC(C)C)C(=O)N[C@H](C(=O)O)[C@@H](C)O [TW-LFEEGLLT] (HELM PEPTIDE1{[O=C(Cn1cc(CCOP(=O)(O)Oc2c3c(c(OP(=O)(O)O)c4c2C2CC4c4cc5c(cc42)C2CC5c4ccccc42)C2CC3c3cc4c(cc32)C2CC4c3ccccc32)nn1)[*:2]].L.F.E.E.G.L.L.T}$$$$V2.0)
effectiveness compared with TW-ELTLGEFL (Survivin–CRM1 complex; pull-down analyses): about one order of magnitude less effective | concentration inhibiting the Survivin/CRM1 interaction efficiently (Survivin–CRM1 complex; pull-down, concentrations between 1 and 50 µM (SI18)): > 50 µM | Kd (Survivin120 K90/103T): 55 ± 24 µM | ΔH (Survivin120 K90/103T; ITC, Survivin120 K90/103T): -1.4 kcal | lower affinity toward wildtype protein compared with TW-ELTLGEFL (Survivin120; ITC KD ratio): ~ three | -TΔS (Survivin120; ITC, Survivin120 WT): -4.7 kcal | ΔG (Survivin120; ITC, Survivin120 WT): -5.7 kcal | ΔH (Survivin120; ITC, Survivin120 WT): -1.0 kcal | Kd (Survivin120; ITC, Survivin120 WT, PBS pH 7.4, 25 °C, one set of sites model, mean ± SEM of fit): 68 ± 22 µM

ELTLGEFL peptide: isolated peptide ELTLGEFL without tweezer, pull-down control
CRM1: Peak area determined with ImageJ ([1]; CRM1 band, samples 15-21 (WT)): 27360.9 | CRM1 intensity_normalised on GST-Surv intensity (samples 1-14) ([1]; CRM1 band, samples 15-21 (WT)): 0.3991 | CRM1: Control w/o GST-Survivin subtracted (sample 16 or 23) ([1]; CRM1 band, samples 15-21 (WT), sample 16 subtracted): 22503.2 | GST-Surv: Peak area determined with ImageJ ([1]; GST-Surv bait band, samples 1-7 (WT according to the summary in r39-r41)): 57214.6 | GST-Surv: Control w/o GST-Survivin subtracted (sample 2 or 9) ([1]; GST-Surv bait band, samples 1-7 (WT), sample 2 subtracted): 56379.3 | Normalised CRM1 intensity, summary of replicates I and II ([1]; WT, w/o tweezer = 100, replicates I and II): 112.936% | CRM1 intensity_normalised on GST-Surv intensity (samples 1-14) and CRM1 intensity w/o incubation (sample 15 or 22) ([1]; samples 15-21 (WT), fraction of sample 15 (w/o Tweezer)): 1.129 | CRM1 intensity_normalised on GST-Surv intensity (samples 1-14) and CRM1 intensity w/o incubation (sample 15 or 22) ([1]; samples 15-21 (WT), w/o Tweezer = 100): 112.936% | CRM1: Peak area determined with ImageJ [2, 3]: 38827.8 | CRM1 intensity_normalised on GST-Surv intensity (samples 1-14) [2, 3]: 0.485 | CRM1: Control w/o GST-Survivin subtracted (sample 16 or 23) ([2]; CRM1 band, samples 22-28 (K90/103T), sample 23 subtracted): 34118.6 | GST-Surv: Peak area determined with ImageJ ([2]; GST-Surv bait band, samples 8-14 (K90/103T according to the summary in r39-r41)): 72953.9 | GST-Surv: Control w/o GST-Survivin subtracted (sample 2 or 9) ([2]; GST-Surv bait band, samples 8-14 (K90/103T), sample 9 subtracted): 70354.7 | Normalised CRM1 intensity, summary of replicates I and II ([2]; K90/103T, w/o tweezer = 100, replicates I and II): 76.5436% | CRM1 intensity_normalised on GST-Surv intensity (samples 1-14) and CRM1 intensity w/o incubation (sample 15 or 22) ([2]; samples 22-28 (K90/103T), fraction of sample 22 (w/o tweezer)): 0.7654 | CRM1 intensity_normalised on GST-Surv intensity (samples 1-14) and CRM1 intensity w/o incubation (sample 15 or 22) ([2]; samples 22-28 (K90/103T), w/o tweezer = 100): 76.5436%
